assay: soluble on expression in E. coli; label from the status in PepcDB or PDB records

| Sequence | soluble on expression in E. coli |
| --- | --- |
| MNEIKCPNCGEVFTVNESQYAELLSQVRTAEFDKELHDRMKQELALAEQKAMNEQQTKLAQKDQEIAQLQSQIQNFDTEKELAKKEVEQTSHEALLAKDKEVQLLENQLATLRLEHENQLQKTLSDLEKERDQVKNQLLLQEKENELSLASVKQNYEAQLKAASEQVEFYKNFKAQQSTKAIGESLEQYAESEFNKVRSFAFPNAYFEKDNKVSSRGSKGDFIFRECDENGVEIISIMFEMKNEADGTEKKHKNADFYKELDKDRREKNCEYAVLVTMLEADNDYFNTGIVDVSHEYEKMYVVRPQFFIQLIGLLRNAALNSLKYKQELALVREQNIDITHFEEDLDAFKLAFAKNYNSASTNFGKAIDEIDKAIKRMEEVKKFLTTSENQLRLANNKLEDVSVKKLTRKNPTMKAKFEALKGE | not soluble |
| AKSVVSHSLTTLGVEVSKPPPQHDKIEASEPSFPLHESILKVVEEEWQQIDRQLPSVACRYPVSSIEAARILSVPKVDDEILGFISEATPAAATQASSTESCDKHLDLALCRSYEAAASALQIAAHTAFVAKSLQADISQAAQIINSDPSDAQQALRILNRTYDAASYLCDAAFDEVRMSACAMGSSTMGRRYLWLKDCKISPASKNKLTVAPFKGGTLFGGEVHKVIKKRGNKQ | soluble |
| MAHHHHHHSLSDLKIARIDVFQVDLPYSGGVYYLSAGREYRSFDATIVRITTDTGIEGWGESTPFGSNYIASHPRGVRAGIATMAPSLIGLDPRRVDRINDAMDDALLGHEDAKTAIDVACWDIFGKSVGLPVCELLGGRTNTRLPLISSIYVGEPEDMRARVAKYRAKGYKGQSVKISGEPVTDAKRITAALANQQPDEFFIVDANGKLSVETALRLLRLLPHGLDFALEAPCATWRECISLRRKTDIPIIYDELATNEMSIVKILADDAAEGIDLKISKAGGLTRGRRQRDICLAAGYSVSVQETCGSDIAFAAIVHLAQTIPERSLRCILECRDMVTVKTADGAFDIQDGFATAPTTPGLGIMPRLDVLGEAVASYF | soluble |
| MGSDKIHHHHHHMRVAMWSGPRNLSTAMMYAFGNRPDCEAWDEPFYAAYLAQTGLDHPMRQTVLASQPPHYGAVVERLLATPTQPVQYLKLMTHHMLPDTSLTWATGFANIHLIRHPARVIASYTAKRAEITLDDIGFPQAARLHTALPGPIIDSADIRAAPEAMLRSLCEAIDLPFDPAMLHWPAGPKPFDGAWAPHWYDAVHRSTGFAAAEGHLPEVPDHHRGLLKDALDIYETLHQSRLRP | not soluble |
| AAAMVPGRSESWERGEPGRPALYFCGSIRGGREDRTLYERIVSRLRRFGTVLTEHVAAAELGARGEEAAGGDRLIHEQDLEWLQQADVVVAEVTQPSLGVGYELGRAVAFNKRILCLFRPQSGRVLSAMIRGAADGSRFQVWDYEEGEVEALLDRYFEADPPGQV | not soluble |
| MGSDKIHHHHHHMSGQCLYILRNRTNWHVNRLRVFTPSQEGGASVCKRTTRRAADTIPRNIDSCCDRVLRNGILRRSRAAPTNRDTNMLHQNNGFHANALLGSLADDSLRALAPHLELVKIKSAQLLCETDEPMRHLYFPTTAMMSVLYLMEDGAMVEVAAVGNEGVVGVSTLADYGCGGASGRIEVRSGGYAYRVSTQVFRREFDRSLDTFQLMLRYWQAAMTQIARGALCNRHHSVSEQLSRWLLLAHDRVEGDELAVTQQTIANMLGVRREGITEAAGKLQEAGLIRQRRGHITVLDREGLEARACECYGVIRGEFNRLILEARRDAHAPQPIPAEGRPLRVAGYHGAVRSAA | not soluble |
| QKKTVQVYRIIAKNTIEERVCQVQAEKQELVSKTLVEDVNFFESLTNEELLRLFE | not soluble |
| LMENGPEFKIEVSILKDVATVMIDTTGSSLFKRGYRTEKGGAPIKENMAAAILQLSNWYPDKPLIDPTCGSGTFCIEAVMIARKMAPGLRRSFAFEEWNWISDRLIQEVRTEAAKKVDRELELDIMGCDIDARMVEIAKANAQVAGVAGDITFKQMRVQDLRSDKINGVIISNPPYGERLSDDAGVTKLYAEMGQVFAPLKTWSKFILTSDEAFESKYGSQADKKRKLYNGTLKVDLYQYFGQRVKRQEVK | not soluble |
